Consider 2 substances from FireProtDB (doi:10.1021/bi981698k).

The conditions of the data set: Saccharomyces cerevisiae (strain ATCC 204508 / S288c), 25 °C, GdnHCl, CD, NaCl 40 mM.
The mark [1] stands for this setting: pH 4, acetate-HCl 20 mM, structure 1YCC.
Where [2] appears, read: pH 5, acetate-HCl 20 mM, structure 1YCC.
[3] abbreviates: pH 5.8, MES 20 mM, structure 1YCC.
[4] abbreviates: pH 6.12, MES 20 mM, structure 1YCC.
Where [5] appears, read: pH 6.5, MES 20 mM, structure 1YCC.
Setting [6] is: pH 7.2, Tris 20 mM, structure 1YCC.
Setting [7] is: pH 7.5, Tris 20 mM, structure 1YCC.

Sequence of Cytochrome c isoform 1 wild type, P00044 (P00044 whole entry, canonical isoform): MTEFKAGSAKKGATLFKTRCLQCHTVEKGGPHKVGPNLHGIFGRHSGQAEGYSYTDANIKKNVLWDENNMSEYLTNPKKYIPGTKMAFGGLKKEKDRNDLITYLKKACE
Sequence of Cytochrome c isoform 1 K79H, P00044 (P00044 whole entry K79H, canonical isoform): as the sequence (P00044 whole entry, canonical isoform) above, with K79H counted along it

Take Cytochrome c isoform 1 K79H, P00044: the denaturant m value under setting [1] was determined as 3.33 kcal/mol/M; the denaturant m value under setting [2] amounted to 3.67 kcal/mol/M; the denaturant m value under setting [3] stood at 3.54 kcal/mol/M; the denaturant m value under setting [4] is 3.31 kcal/mol/M; the denaturant m value under setting [5] was 3.14 kcal/mol/M; the denaturant m value under setting [6] is 2.97 kcal/mol/M. Besides, under setting [7], the denaturant m value is 3.2 kcal/mol/M. Further, the “denaturant midpoint (higher = more stable)” value (“denaturant midpoint” below) was found to be 0.51 M under setting [1]; 0.98 M under setting [2]; 1.05 M under setting [3]; 1.09 M under setting [4]; 1.12 M under setting [5]; 1.15 M under setting [6]. For the same substance, the “denaturant midpoint” value under setting [7] turned out to be 1.15 M. Moreover, the unfolding free energy runs as follows: under setting [1], 1.71 kcal/mol; under setting [2], 3.6 kcal/mol; under setting [3], 3.7 kcal/mol; under setting [4], 3.6 kcal/mol; under setting [5], 3.52 kcal/mol; under setting [6], 3.41 kcal/mol. Besides, the unfolding free energy under setting [7] was determined as 3.68 kcal/mol.

With “Cytochrome c isoform 1 wild type, P00044”, the denaturant m value by setting is: (pH 4, acetate-HCl 20 mM) 4.1 kcal/mol/M; (pH 4.5, acetate-HCl 20 mM) 4.28 kcal/mol/M; (pH 5, acetate-HCl 20 mM) 4.42 kcal/mol/M; (pH 5.8, MES 20 mM) 4.84 kcal/mol/M; (pH 6.12, MES 20 mM) 4.86 kcal/mol/M; (pH 6.5, MES 20 mM) 4.45 kcal/mol/M. Also, the denaturant m value came to 4.31 kcal/mol/M (pH 7.2, Tris 20 mM) and 4.92 kcal/mol/M (pH 7.5, Tris 20 mM). The “denaturant midpoint” value is, setting by setting: (pH 4, acetate-HCl 20 mM) 0.66 M; (pH 4.5, acetate-HCl 20 mM) 0.96 M; (pH 5, acetate-HCl 20 mM) 1.08 M; (pH 5.8, MES 20 mM) 1.09 M; (pH 6.12, MES 20 mM) 1.16 M; (pH 6.5, MES 20 mM) 1.23 M. Besides, the “denaturant midpoint” value runs as follows: (pH 7.2, Tris 20 mM) 1.09 M; (pH 7.5, Tris 20 mM) 1.15 M. Also, the unfolding free energy is, setting by setting: (pH 4, acetate-HCl 20 mM) 2.72 kcal/mol; (pH 4.5, acetate-HCl 20 mM) 4.11 kcal/mol; (pH 5, acetate-HCl 20 mM) 4.77 kcal/mol; (pH 5.8, MES 20 mM) 5.28 kcal/mol; (pH 6.12, MES 20 mM) 5.66 kcal/mol; (pH 6.5, MES 20 mM) 5.44 kcal/mol. In addition, the unfolding free energy came to 4.68 kcal/mol (pH 7.2, Tris 20 mM) and 5.66 kcal/mol (pH 7.5, Tris 20 mM).
